Patent US20220396794, “[…] AGAINST TRANSFERRIN RECEPTOR (TfR)” (APTERNA LIMITED, published 2022)

How the values were obtained:
[1] = biological target: T1, Transferrin receptor 1 (hTfR/hTFRC) extracellular domain (Homo sapiens, UniProt P02786 SEQ:89-760); assay: SPR; not measurable; settings: tags: N-terminal His6; expressed in HEK293; Sino Biological 11020-H07H; chain copies: 2 (inferred); label: biotin (SPR) or Cy3 (cells)
Experimental: (§1) Surface plasmon resonance-based biosensor assay. The Biacore T100 (GE Healthcare, Uppsala, Sweden) was used to monitor label-free interactions of truncated TR14-hTfR1 in real time. The biotinylated aptamer was coupled to a streptavidin-coated Biacore chip (SensorChip SA, BR-1003-98, General Electric Company) by an injection in binding buffer at a concentration of 25 μg/mL (30 mM Tris-HCl, pH 7.5; 150 mM NaCl; 5 mM MgCl₂) at 10 uL/min. The RNA was refolded by heating to 65° C., followed by cooling to 37° C., before immobilization. To measure binding kinetics, five concentrations of purified hTfR1 protein were injected at a flow rate of 10 uL/min. After binding, the surface was regenerated by injecting 50 mM NaOH at a flow rate of 15 μL/min for 20 s. Data from the control surface were subtracted. BIAevaluation software (GE Healthcare) was used for analysis. The binding data was fit to a 1:1 binding with a mass transfer model to calculate kinetics parameters as previously described (Hernandez et al, 2009; Soontornworajit et al, 2011)

[2] = biological target: T1, Transferrin receptor 1 (hTfR/hTFRC) …; assay: SPR; 30 mM Tris pH 7.5, 150 mM NaCl, 5 mM MgCl2; aptamer immobilised; settings: tags: N-terminal His6; expressed in HEK293; Sino Biological 11020-H07H; chain copies: 2 (inferred); label: biotin (SPR) or Cy3 (cells)
Experimental: as §1

T1 sequence (P02786 89-760): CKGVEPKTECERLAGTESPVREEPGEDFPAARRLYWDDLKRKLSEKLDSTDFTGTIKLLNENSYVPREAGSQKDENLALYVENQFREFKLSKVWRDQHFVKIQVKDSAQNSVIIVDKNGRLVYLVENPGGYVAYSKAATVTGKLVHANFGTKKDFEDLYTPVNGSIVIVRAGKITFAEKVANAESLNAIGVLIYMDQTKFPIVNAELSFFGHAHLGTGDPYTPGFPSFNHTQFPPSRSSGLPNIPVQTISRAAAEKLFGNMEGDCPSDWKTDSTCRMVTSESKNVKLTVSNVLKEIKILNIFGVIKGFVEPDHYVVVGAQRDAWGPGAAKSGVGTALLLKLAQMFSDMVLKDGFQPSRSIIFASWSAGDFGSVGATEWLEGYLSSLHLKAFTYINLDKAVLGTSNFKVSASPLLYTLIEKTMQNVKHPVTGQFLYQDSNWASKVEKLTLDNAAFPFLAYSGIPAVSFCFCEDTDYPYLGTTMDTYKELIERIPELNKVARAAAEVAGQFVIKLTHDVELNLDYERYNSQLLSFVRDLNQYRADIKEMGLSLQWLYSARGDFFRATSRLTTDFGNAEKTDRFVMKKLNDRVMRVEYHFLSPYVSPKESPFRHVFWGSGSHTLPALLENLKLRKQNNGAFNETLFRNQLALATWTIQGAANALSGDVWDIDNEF

Binder | binding result [1] | Kd [2]
GCUCAAUGCGUUCACGUUUAUUCACAUUUUUGAAUUGAGC (ssRNA, 2'-F pyrimidines (rule of the parent selection)) [TR14 ST1-1 (40-nt)] | no binding | –
AAUGCGUUCACGUUUAUUCACAUUUUUGAAUU (ssRNA, 2'-F pyrimidines (rule of the parent selection)) [TR14 ST1-2 (32-nt)] | no binding | –
UUUAUUCACAUUUUUGAAUUGA (ssRNA, 2'-F pyrimidines (rule of the parent selection)) [TR14 ST1-3 (22-nt)] | – | 22 pM
GGGGCUCAAUGCGUUCACGUUUAUUCACAUUUUUGAAUUGAGCAUG (ssRNA, 2'-F pyrimidines (rule of the parent selection)) [TR14 S1 (46-nt)] | – | 1460 pM
